Measured values taken from PMC10926838, “Self-driving laboratories to autonomously navigate the protein fitness landscape” (Nature chemical engineering, 2024).
Blank lines part the entries; values can stand above or below the molecule they belong to.

What was measured:
6151 = test system: T1, 6151; experiment: fluorescence of released 4-methylumbelliferone, Michaelis-Menten fit; type: biochemical, Streptomyces sp.; settings: 10 nM enzyme, 0.5% DMSO, 10 mM phosphate pH 7, 50 mM NaCl
T1 construct: gene P6F0-P1F1-P5F2-P1F3; pET-22b, Ni-NTA purified
Source text: fluorescence of released 4-methylumbelliferone, Michaelis-Menten fit on 6151 | We also tested the enzymes’ Michaelis–Menten kinetic properties

[1] = substrate: Cc1cc(=O)oc2cc(O[C@@H]3O[C@H](CO)[C@@H](O)[C@H](O)[C@H]3O)ccc12; experiment: as above; type: biochemical, Streptomyces sp. QM-B814; settings: 10 nM enzyme, 0.5% DMSO, 10 mM phosphate pH 7, 50 mM NaCl

- Km 6151: 214 µM
Molecule: Cc1cc(=O)oc2cc(O[C@@H]3O[C@H](CO)[C@@H](O)[C@H](O)[C@H]3O)ccc12 [4-methylumbelliferyl-β-D-glucopyranoside]

B1: Bgl3 (Streptomyces sp. QM-B814) (protein)
chain: MVPAAQQTATAPDAALTFPEGFLWGSATASYQIEGAAAEDGRTPSIWDTYARTPGRVRNGDTGDVATDHYHRWREDVALMAELGLGAYRFSLAWPRIQPTGRGPALQKGLDFYRRLADELLAKGIQPVATLYHWDLPQELENAGGWPERATAERFAEYAAIAADALGDRVKTWTTLNEPWCSAFLGYGSGVHAPGRTDPVAALRAAHHLNLGHGLAVQALRDRLPADAQCSVTLNIHHVRPLTDSDADADAVRRIDALANRVFTGPMLQGAYPEDLVKDTAGLTDWSFVRDGDLRLAHQKLDFLGVNYYSPTLVSEADGSGTHNSDGHGRSAHSPWPGADRVAFHQPPGETTAMGWAVDPSGLYELLRRLSSDFPALPLVITENGAAFHDYADPEGNVNDPERIAYVRDHLAAVHRAIKDGSDVRGYFLWSLLDNFEWAHGYSKRFGAVYVDYPTGTRIPKASARWYAEVARTGVLPTA
notes: wild-type; pET-22b, E. coli BL21(DE3), Ni-NTA purified
- Km [1]: 76 µM
- kcat [1]: 10.7 s⁻¹
